Assay results: patent US7141417 (THOMAS JEFFERSON UNIVERSITY, dated 2006)
Values belong to the binder of their own block, whether it stands above or below them.

B4: ^35S-methionine-labeled in vitro translated full-length 67 kDa Fez1 (other)
chain: MGSVSSLISGHSFHSKHCRASQYKLRKSSHLKKLNRYSDGLLRFGFSQDSGHGKSSSKMGKSEDFFYIKVSQKARGSHHPDYTALSSGDLGGQAGVDFDPSTPPKLMPFSNQLEMGSEKGAVRPTAFKPVLPRSGAILHSSPESASHQLHPAPPDKPKEQELKPGLCSGALSDSGRNSMSSLPTHSTSSSYQLDPLVTPVGPTSRFGGSAHNITQGIVLQDSNMMSLKALSFSDGGSKLGHSNKADKGPSCVRSPISTDECSIQELEQKLLEREGALQKLQRSFEEKELASSLAYEERPRRCRDELEGPEPKGGNKLKQASQKSQRAQQVLHLQVLQLQQEKRQLRQELESLMKEQDLLETKLRSYEREKTSFGPALEETQWEVCQKSGEISLLKQQLKESQTEVNAKASEILGLKAQLKDTRGKLEGLELRTQDLEGALRTKGLELEVCENELQRKKNEAELLREKVNLLEQELQELRAQAALARDMGPPTFPEDVPALQRELERLRAELREERQGHDQMSSGFQHERLVWKEEKEKVIQYQKQLQQSYVAMYQRNQRLEKALQQLARGDSAGEPLEVDLEGADIPYEDIIATEI
modifications: ^35S-methionine label
notes: also called full-length (67 kDa) Fez1 protein

Legend:
[1] = target: T1, glutathione S-transferase (GST) fused with full-length (67 kilodalton) Fez1 protein (human, UniProt Q9Y250 1-596); experiment: in vitro binding of ^35S-labeled deletion mutants with GST-fused Fez1
T1 construct: Order GST then Fez1 follows the usual pGEX layout; also called GST-fused Fez1; GST-fused full-length 67 kDa Fez1; not shown: glutathione-S-transferase (GST) of the pGEX fusion expression vector (Pharmacia)
T1 sequence: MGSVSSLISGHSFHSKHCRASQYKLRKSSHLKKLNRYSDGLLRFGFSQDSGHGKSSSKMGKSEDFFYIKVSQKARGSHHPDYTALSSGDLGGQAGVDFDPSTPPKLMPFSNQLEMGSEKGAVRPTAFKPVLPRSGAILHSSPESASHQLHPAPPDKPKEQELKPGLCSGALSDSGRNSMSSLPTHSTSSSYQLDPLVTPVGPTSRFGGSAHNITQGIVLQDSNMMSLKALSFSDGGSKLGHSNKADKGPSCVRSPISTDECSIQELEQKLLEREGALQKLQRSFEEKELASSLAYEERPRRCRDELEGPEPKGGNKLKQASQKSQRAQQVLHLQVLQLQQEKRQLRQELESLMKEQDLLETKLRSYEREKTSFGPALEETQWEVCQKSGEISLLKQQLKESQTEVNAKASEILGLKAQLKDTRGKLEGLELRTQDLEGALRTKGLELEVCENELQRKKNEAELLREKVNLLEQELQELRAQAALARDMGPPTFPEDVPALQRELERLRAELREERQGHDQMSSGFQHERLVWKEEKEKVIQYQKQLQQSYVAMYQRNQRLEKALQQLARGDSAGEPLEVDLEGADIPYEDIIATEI
Protocol: (§1) In vitro Transcription/Translation, GST-Fusion Protein and in vitro Binding Assay In vitro transcription and translation was performed using a commercially-available, rabbit reticulocyte-based system, (TNT™ T7 Quick Coupled Transcription/Translation System, Promega) by labeling with ^35S-methionine, according to supplier's instructions. GST-fusion proteins were isolated using a glutathione-agarose column (Pharmacia). Proteins were incubated in two binding buffers: buffer A (comprising 100 millimolar NaCl, 0.5% NP-40, 0.75 milligrams per milliliter bovine serum albumin (BSA), 20 millimolar Tris-HCl pH 8.0, and 1 millimolar EDTA) and buffer B (comprising 150 millimolar NaCl, 0.1% (v/v) Tween 20, 0.75 milligrams per milliliter BSA, 50 millimolar Tris-HCl pH 8.0, 5 millimolar EDTA, 10% (v/v) glycerol). After the glutathione-agarose beads had been pre-incubated in a 10% (w/v) BSA suspension, the beads were mixed with protein samples and washed 5 times, each wash comprising mixing the beads with 10 volumes of the binding buffer. After the beads had been washed, the bead-containing liquid was centrifuged to recover binding proteins. The samples were boiled for 3 minutes and then the proteins in the samples were separated by SDS-PAGE. The gel was dried and exposed to film for 4–24 hours at –80° C.

[2] = target: B4; experiment: in vitro binding assay (figure legend); by paragraph 373 the labeled partner was Fez1 and EF1-γ(N) was GST-fused
Protocol: as §1, with “C. […]” for “C.”

[3] = target: T1, glutathione S-transferase (GST) fused …; experiment: in vitro binding of ^35S-labeled full-length Fez1 with GST-fused full-length Fez1, buffer B
Protocol: as §1
The amino acid sequence of Fez1 comprises a leucine-zipper-like region. […]

[4] = target: T1, glutathione S-transferase (GST) fused …; experiment: in vitro binding of ^35S-methionine-labeled in vitro translated EFs to GST-fused Fez1, glutathione-agarose beads, SDS-PAGE
Protocol: as §1

- binding result [1]: no binding
B1: EF1-γ(M), ^35S-methionine-labeled in vitro translated deletion mutant of EF1-γ (other)
chain: GERVTLADITVVCTLLWLYKQVLEPSFRQAFPNTNRWFLTCINQPQFRAVLGEVKLCEKMAQFDAKKFAETQPKKDTPRKEKGSREEKQKPQAERKEEKKAAAPAPEEEMDECEQALAAEPKAKDPFAHLPKSTFVLDEFKRKYSNEDT
modifications: ^35S-methionine label ; 35S-labelled methionine residues (radiolabel), written M

- binding result [4]: no binding
B5: ^35S-methionine-labeled in vitro translated EF1-α (other, UniProt P68104 1-462, looked up)
chain: MGKEKTHINIVVIGHVDSGKSTTTGHLIYKCGGIDKRTIEKFEKEAAEMGKGSFKYAWVLDKLKAERERGITIDISLWKFETSKYYVTIIDAPGHRDFIKNMITGTSQADCAVLIVAAGVGEFEAGISKNGQTREHALLAYTLGVKQLIVGVNKMDSTEPPYSQKRYEEIVKEVSTYIKKIGYNPDTVAFVPISGWNGDNMLEPSANMPWFKGWKVTRKDGNASGTTLLEALDCILPPTRPTDKPLRLPLQDVYKIGGIGTVPVGRVETGVLKPGMVVTFAPVNVTTEVKSVEMHHEALSEALPGDNVGFNVKNVSVKDVRRGNVAGDSKNDPPMEAAGFTAQVIILNHPGQISAGYAPVLDCHTAHIACKFAELKEKIDRRSGKKLEDGPKFLKSGDAAIVDMVPGKPMCVESFSDYPPLGRFAVRDMRQTVAVGVIKAVDKKAAGAGKVTKSAQKAQKAK
modifications: ^35S-methionine label

Continued, binder first:

B2: EF1-γ(N), ^35S-methionine-labeled in vitro translated deletion mutant of EF1-γ (other)
chain: MAAGTLYTYPENWRAFKALIAAQYSGAQVRVLSAPPHFHFGQTNRTPEFLRKFPAGKVPAFEGDDGFCVFESNAIAYYVSNEELRGSTPEAAAQVVQWVSFADSDIVPPASTWVFPTLGIMHHNKQATENAKEEVRRILGLLDAYLKTRTFLV
modifications: ^35S-methionine label ; 35S-labelled methionine residues (radiolabel), written M
- binding result [1]: binds

B3: GST fused with EF1-γ(N) (other, human, UniProt P26641 1-153, looked up)
chain: MAAGTLYTYPENWRAFKALIAAQYSGAQVRVLSAPPHFHFGQTNRTPEFLRKFPAGKVPAFEGDDGFCVFESNAIAYYVSNEELRGSTPEAAAQVVQWVSFADSDIVPPASTWVFPTLGIMHHNKQATENAKEEVRRILGLLDAYLKTRTFLV
notes: not shown: glutathione S-transferase (GST)
- binding result [2]: binds

Binder: B4
- binding result [3]: binds
